US8367390B2, “Galactanase variants” (Novozymes A/S, priority 2002, dated 2013)

Legend:
Type in all cases: biochemical
[1] = HPAE-PAD check of transglycosylation products from ONPG; details: HIGAL 110 μg/ml; ONPG 5 mg/ml with and without Gal2 or Gal3 0.05 mg/ml; room temperature, pH 6.5
Procedure: Using HPAE-PAD chromatography (Dionex LC-500 System, PA-100 column, linear gradient of 0-0.6 M sodium acetate in 100 mM NaOH), the production of larger oligosaccharides from transglycosylation upon incubation of HIGAL (110 μg/ml) at room temperature (0.5 to 14 min followed by heat inactivation for 10 min at 95° C. resulting in A405: 0.15-0.67) in 50 mM sodium acetate, 1 mM CaCl2, 0.01% Triton X-100, pH 6.5 with ONPG (5 mg/ml) with and without Gal2 (0.05 mg/ml) or Gal3 (0.05 mg/ml) as acceptor was verified.

[2] = pH profile of galactanase activity on lupin AZCL-galactan; details: 15 min at 37° C., A590, unit assumed
Procedure: The pH profiles of the purified variants described above were established as follows: Galactanase activity at various pH was measured by mixing 500 μl 4 mg/ml lupin AZCL-galactan (Megazyme, Australia) in water with 500 μl buffer (50 mM sodium acetate, 50 mM potassium dihydrogenphosphate, 50 mM boric acid, 1 mM CaCl2, 0.01% Triton X-100 adjusted to pH 2.5, 3.5, 4.5, 5.5, 6.5, 7.5, 8.5 or 9.5 with HCl/NaOH) and 25 μl purified enzyme diluted to about 0.5-2 μg/ml in water. The mixture was incubated 15 min at 37° C., insoluble material was removed by centrifugation, and absorbance in the supernatant was measured at 590 nm.

[3] = Activity on lactose, products by HPAE-PAD; details: lactose 100 mg/ml, 50° C., pH 6.45
Procedure: HIGAL (60 micrograms/ml) and MTGAL (750 μg/ml) were incubated at 50° C. with lactose (Lac) (100 mg/ml) at pH 4.8 (25 mM sodium citrate), 6.45 (25 mM sodium acetate, 0.5 mM CaCl2, 0.005% Triton X-100) and 8.6 (50 mM Tris, 0.01% Brij 35). 20 microliters samples were withdrawn after 2, 23 and 120 hours, 980 water added and enzyme inactivated by heating to 95° C. for 10 min. After a further 20 time dilution with water, samples were analysed using HPAE-PAD (Dionex LC-500 system, PA-100 column, 0-3 min: 150 mM NaOH, 3-19 min: linear gradient 0-0.18 M sodium acetate in 150 mM NaOH). Response factors for the individual peaks were estimated from standards of Gal, Glu, Lac, Gal2, Gal3 and Gal4.
In Tables 12 and 13 weight fractions of the analysed products with MTGAL at pH […] and 6.45 are given. The figures indicate weight % of the products resulting from the incubation. The term DP3 indicates transglycosylation product consisting of three sugar units, and the term DP4+ transglycosylation products consisting of four or more sugar units. Unfortunately, the analysis method used was not able to separate Glu and Gal.

[4] = Activity on lactose, products by HPAE-PAD; details: lactose 100 mg/ml, 50° C.
[5] = pH 4.5, incubation time 2 hours
[6] = pH 4.5, incubation time 23 hours
[7] = pH 4.5, incubation time 120 hours
[8] = pH 6.45, incubation time 120 hours

B1: HIGAL: GH Family 53 galactanase from Humicola insolens, SEQ ID NO: 2 (wild type parent) (protein, listed as Humicola insolens)
chain: ALQYKGVDWSSVMVEERAGVRYKNVNGQEKPLEYILAENGVNMVRQRVWVNPWDGNYNLDYNIQLARRAKAAGLGLYINFHYSDTWADPAHQTTPAGWPSDINNLAWKLYNYTLDSMNRFADAGIQVDIVSIGNEITQGLLWPLGKTNNWYNIARLLHSAAWGVKDSRLNPKPKIMVHLDNGWNWDTQNWWYTNVLSQGPFEMSDFDMMGVSFYPFYSASATLDSLRRSLNNMVSRWGKEVAVVETNWPTSCPYPRYQFPADVRNVPFSAAGQTQYIQSVANVVSSVSKGVGLFYWEPAWIHNANLGSSCADNTMFTPSGQALSSLSVFHRI
modifications: mat_peptide (1)..()
With B1 the “Production of larger oligosaccharides from transglycosylation” value [1] was “verified”.

B2: MTGAL: GH Family 53 galactanase from Myceliophthora thermophila, SEQ ID NO: 1 (wild type parent) (protein, listed as Myceliophthora thermophila)
chain: ALTYRGVDWSSVVVEERAGVSYKNTNGNAQPLENILAANGVNTVRQRVWVNPADGNYNLDYNIAIAKRAKAAGLGVYIDFHYSDTWADPAHQTMPAGWPSDIDNLSWKLYNYTLDAANKLQNAGIQPTIVSIGNEIRAGLLWPTGRTENWANIARLLHSAAWGIKDSSLSPKPKIMIHLDNGWDWGTQNWWYTNVLKQGTLELSDFDMMGVSFYPFYSSSATLSALKSSLDNMAKTWNKEIAVVETNWPISCPNPRYSFPSDVKNIPFSPEGQTTFITNVANIVSSVSRGVGLFYWEPAWIHNANLGSSCADNTMFSQSGQALSSLSVFQRI
modifications: mat_peptide (1)..()
Work on B2 yielded a Galactanase activity at pH 2.5 ([2]; pH 2.5) of 0%, a Galactanase activity at pH 3.5 ([2]; pH 3.5) of 12% and a Galactanase activity at pH 4.5 ([2]; pH 4.5) of 41%. For the same molecule, the Galactanase activity at pH 5.5 ([2]; pH 5.5) was 63%, the Galactanase activity at pH 6.5 ([2]; pH 6.5) was 90% and the Galactanase activity at pH 7.5 ([2]; pH 7.5) was 100%. The Galactanase activity at pH 8.5 ([2]; pH 8.5) was 54%, the Galactanase activity at pH 9.5 ([2]; pH 9.5) was 7% and the DP3 in products ([3]; incubation time 2 hours) was 1.4 weight %. For the same molecule, the Glu/Gal in products ([3]; incubation time 2 hours) was 1.0 weight %, the Lac/Gal2 in products ([3]; incubation time 2 hours) was 95.7 weight % and the DP3 in products ([3]; incubation time 23 hours) was 6.3 weight %. The Glu/Gal in products ([3]; incubation time 23 hours) was 6.5 weight %, the Lac/Gal2 in products ([3]; incubation time 23 hours) was 85.3 weight % and the Glu/Gal in products ([3]; incubation time 120 hours) was 21.0 weight %. The DP3 in products [4, 5] was 2.0 weight %, the “DP4+ in products” value [4, 5] was 0.5 weight % and the Glu/Gal in products [4, 5] was 1.4 weight %. For the same molecule, the Lac/Gal2 in products [4, 5] was 96.0 weight %, the DP3 in products [4, 6] was 7.0 weight % and the “DP4+ in products” value [4, 6] was 1.8 weight %. For the same molecule, the Glu/Gal in products [4, 6] was 12.5 weight %, the Lac/Gal2 in products [4, 6] was 78.7 weight % and the DP3 in products [4, 7] was 8.9 weight %. The “DP4+ in products” value [4, 7] was 1.1 weight %, the Glu/Gal in products [4, 7] was 38.8 weight % and the Lac/Gal2 in products [4, 7] was 51.2 weight %. The “DP4+ in products” value ([4]; pH 6.45, incubation time 2 hours) was 1.9 weight %, the “DP4+ in products” value ([4]; pH 6.45, incubation time 23 hours) was 1.9 weight % and the DP3 in products [4, 8] was 11.7 weight %. The “DP4+ in products” value [4, 8] was 4.7 weight %, the Lac/Gal2 in products [4, 8] was 62.6 weight % and the “Conversion of Lac” value ([4]; pH 4.5 and 6.5) was “significant conversion of Lac”.
